Test results published in patent US20240002498A1 (TENEOBIO, published 2024).
Where a chain is given by its changes, count along the chain named.

Tests used:
[1] = target: human Folate Receptor Alpha (FOLR1) on cells (human) (UniProt P15328); assay: cell-based or functional assay
[2] = target: human Folate Receptor Alpha (FOLR1) on cells (human) (UniProt P15328); assay: saturation binding on IGROV-1 cells, bound against free antibody (Scatchard analysis per paragraph 239)
cyno FOLR1 on CHO cells [3] = target: T1, cyno FOLR1 on CHO cells (cyno (Cynomolgus macaque), UniProt A0A2K5U044 25-234); assay: flow cytometry, CHO cells stably expressing cyno FOLR1
T1 construct: whole, on cells; also called cyFOLR1
T1 sequence (A0A2K5U044 entry or part of it): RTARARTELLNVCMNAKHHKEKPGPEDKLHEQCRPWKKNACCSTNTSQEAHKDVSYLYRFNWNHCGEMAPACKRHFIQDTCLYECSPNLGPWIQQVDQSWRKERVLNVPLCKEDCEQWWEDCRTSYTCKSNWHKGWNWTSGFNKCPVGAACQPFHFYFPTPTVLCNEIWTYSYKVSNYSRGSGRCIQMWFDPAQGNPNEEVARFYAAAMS

recombinant human FOLR1 = recombinant human FOLR1 (human, UniProt P15328 25-234); assay: BLI, Octet QK-384, recombinant human FOLR1
Sequence of recombinant human FOLR1 (P15328 25-234 limits assumed): as the sequence (A0A2K5U044 entry or part of it) above, with T2I, R4W, K37R, P146A, Y171H counted along it
Experimental: As used herein, the “Kd” or “Kd value” refers to a dissociation constant determined by BioLayer Interferometry, using an Octet QK384 instrument (Fortebio Inc., Menlo Park, CA) in kinetics mode. For example, anti-mouse Fc sensors are loaded with mouse-Fc fused antigen and then dipped into antibody-containing wells to measure concentration dependent association rates (kon). Antibody dissociation rates (koff) are measured in the final step, where the sensors are dipped into wells containing buffer only. The Kd is the ratio of koff/kon. (For further details see, Concepcion, J, et al., Comb Chem High Throughput Screen, 12 (8), 791-800, 2009).
Table 17 summarizes affinity and epitope bin information for anti-FOLR1 heavy chain antibodies (HCAbs). Column 1 indicates the clone ID of the HCAb. Column 2 indicates the affinity of the HCAb to recombinant human FOLR1 as measured by Bio-layer interferometry (BLI) using an Octet QK-384. Column 3 indicates the epitope bin of HCAb as determined by a competition BLI binding experiment using an Octet QK-384.

[4] = target: T2, human Folate Receptor Alpha (FOLR1) on cells (human, UniProt P15328 25-234); assay: cell binding, CHO cells stably expressing human FOLR1
T2 construct: whole, on cells; Endogenous on IGROV-1, OVCAR-3, SKOV-3, HT-29 cells; transfected on CHO cells; the cell is named under assay; also called FRα; FRa
T2 sequence (P15328 25-234): as the sequence (A0A2K5U044 entry or part of it) above, with T2I, R4W, K37R, P146A, Y171H counted along it

[5] = target: T2, human Folate Receptor Alpha (FOLR1) on …; assay: flow cytometry, CHO cells stably expressing human FOLR1
mouse FOLR1 on CHO cells [6] = target: T3, mouse FOLR1 on CHO cells (mouse, UniProt P35846 25-232); assay: cell binding, CHO cells stably expressing mouse FOLR1
T3 construct: whole, on cells; also called msFOLR1
T3 sequence (P35846 25-232): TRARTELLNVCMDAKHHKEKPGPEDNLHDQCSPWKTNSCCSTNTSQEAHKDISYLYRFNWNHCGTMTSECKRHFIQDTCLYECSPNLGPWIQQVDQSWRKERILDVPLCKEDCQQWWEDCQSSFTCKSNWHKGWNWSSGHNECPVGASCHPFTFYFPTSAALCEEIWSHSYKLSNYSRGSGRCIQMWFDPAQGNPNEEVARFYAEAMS

[7] = target: T2, human Folate Receptor Alpha (FOLR1) on …; assay: cell binding, OVCAR-3 cells
cyno FOLR1 on CHO cells [8] = target: T1, cyno FOLR1 on CHO cells; assay: cell binding, CHO cells stably expressing cyno FOLR1
[9] = target: T2, human Folate Receptor Alpha (FOLR1) on …; assay: cell binding, IGROV-1 cells
[10] = target: T4, FOLR3 (folate receptor gamma) (UniProt P41439 23-245, limits assumed); assay: BLI (Octet)
T4 construct: also called FRγ
T4 sequence (P41439 23-245 limits assumed): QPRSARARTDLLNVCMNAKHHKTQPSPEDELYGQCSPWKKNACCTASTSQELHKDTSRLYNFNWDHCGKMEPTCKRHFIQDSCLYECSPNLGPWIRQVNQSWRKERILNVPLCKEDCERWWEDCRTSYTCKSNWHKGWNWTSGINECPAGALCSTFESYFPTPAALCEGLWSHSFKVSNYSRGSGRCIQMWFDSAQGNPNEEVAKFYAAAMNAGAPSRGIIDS

mouse FOLR1 on CHO cells [11] = target: T3, mouse FOLR1 on CHO cells; assay: flow cytometry on CHO cells stably expressing mouse FOLR1, MFI fold over background
Experimental: IGROV-1 cells, OVCAR-3 cells, CHO cells stably expressing human FOLR1, CHO cells stably expressing cyno FOLR1, and CHO cells stably expressing mouse FOLR1 were incubated with increasing amounts of the indicated antibodies, and binding characteristics were analyzed. Data are presented in FIG. 1, panels A-E, as MFI fold over background.

CHO_huFOLR2 = target: T5, CHO_huFOLR2 (human, UniProt P14207); assay: flow cytometry on CHO cells stably expressing human FOLR2, MFI fold over background
T5 construct: stably expressed on CHO cells; also called human FOLR2 on CHO cells; folate receptor beta
T5 sequence (P14207 17-230 limits assumed): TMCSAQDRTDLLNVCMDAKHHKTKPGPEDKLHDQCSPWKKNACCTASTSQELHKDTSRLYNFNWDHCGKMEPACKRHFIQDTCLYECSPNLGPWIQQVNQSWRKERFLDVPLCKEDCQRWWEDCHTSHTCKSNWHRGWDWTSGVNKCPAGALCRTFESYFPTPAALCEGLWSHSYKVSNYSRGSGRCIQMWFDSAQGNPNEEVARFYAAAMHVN
Experimental: Anti-FOLR1 HCAb binding to CHO cells stably expressing human FOLR2 (also known as folate receptor beta, FRβ), and CHO cells stably expressing human IZUMO1R (also known as folate receptor delta, FOLR4, FRδ, JUNO) was analyzed for a number of different clones. Data are presented in FIG. 2, panels A-B, as MFI fold over background. Insets show binding of positive control anti-FOLR2 and anti-IZUMO1R antibodies, respectively, in dark grey, compared to the respective isotype control in light grey.

[12] = target: T2, human Folate Receptor Alpha (FOLR1) on …; assay: flow cytometry, IGROV-1 cells

Sequence of human Folate Receptor Alpha (FOLR1) on cells (human) (P15328 25-234): as the sequence (A0A2K5U044 entry or part of it) above, with T2I, R4W, K37R, P146A, Y171H counted along it

TNB-928B, fully human bispecific antibody that binds to FOLR1 (FRα) and CD3
EC50 of ex vivo tumor cell lysis (dissociated ovarian tumor sample) [1]: 0.0452 nM | maximum tumor cell lysis (IGROV-1 cells with human pan T-cells, 48 hours) [1]: 75% | EC50 (read off the curve) [2]: 6 nM

B1: anti-FOLR1 heavy chain antibody (HCAb, UniAb) clone ID 358433 (antibody, V domains shown)
VH: EVQLVESGGGLVKPGGSLRLSCAASGFIFSSYSMNWVRQAPGKGLEWVSSISSGSSYIYYADSVKGRFTISRDNAKNSLYLQMNSLRAEDTAVYYCARDVTSGIAAAGSAFNIRGQGTLVTVSS
notes: Heavy chain-only antibody (no light chain), F14 family
fold over background MFI (cyno FOLR1 on CHO cells [3]): 2530 fold over background | Kd (recombinant human FOLR1): 6.34 nM | EC50 [4]: 5.9 nM | fold over background MFI [5]: 1980 fold over background | EC50 (mouse FOLR1 on CHO cells [6]): 3.6 nM | EC50 [7]: 1.3 nM | EC50 (cyno FOLR1 on CHO cells [8]): 3.1 nM | EC50 [9]: 4.1 nM

B2: anti-FOLR1 heavy chain antibody (HCAb, UniAb) clone ID 358454 (antibody, V domains shown)
VH: B1 VH with K13Q, I28T, Y95F
notes: as for B1
fold over background MFI (cyno FOLR1 on CHO cells [3]): 1520 fold over background | Kd (recombinant human FOLR1): 6.78 nM | EC50 [4]: 4.2 nM | fold over background MFI [5]: 1230 fold over background | EC50 (mouse FOLR1 on CHO cells [6]): 3.2 nM | EC50 [7]: 1.5 nM | binding result [10]: no binding | EC50 (cyno FOLR1 on CHO cells [8]): 3.4 nM | EC50 [9]: 3.3 nM

B3: anti-FOLR1 heavy chain antibody (HCAb, UniAb) clone ID 358457 (antibody, V domains shown)
VH: B1 VH with K13Q, I28T, A88D
notes: as for B1
fold over background MFI (cyno FOLR1 on CHO cells [3]): 2520 fold over background | Kd (recombinant human FOLR1): 6.82 nM | EC50 [4]: 4.6 nM | fold over background MFI [5]: 2080 fold over background | EC50 (mouse FOLR1 on CHO cells [6]): 2.5 nM | EC50 [7]: 1.1 nM | EC50 (cyno FOLR1 on CHO cells [8]): 3 nM | EC50 [9]: 3.6 nM

B4: anti-FOLR1 heavy chain antibody (HCAb, UniAb) clone ID 358474 (antibody, V domains shown)
VH: B1 VH with I28T, V93I
notes: as for B1
fold over background MFI (cyno FOLR1 on CHO cells [3]): 2350 fold over background | Kd (recombinant human FOLR1): 7.62 nM | EC50 [4]: 4 nM | fold over background MFI [5]: 2240 fold over background | EC50 (mouse FOLR1 on CHO cells [6]): 2.6 nM | EC50 [7]: 1.2 nM | binding result [10]: no binding | EC50 (cyno FOLR1 on CHO cells [8]): 4.3 nM | EC50 [9]: 4 nM

B5: anti-FOLR1 heavy chain antibody (HCAb, UniAb) clone ID 358589 (antibody, V domains shown)
VH: EVQLVESGGGLVQPGGSLRLSCAASGFSFSSYSMKWVRQAPGKGLEWVSYISSSSDTIEYADSVKGRFTISRDNAKNSLYLMNSLRDEDTAVYYCASVGLDFDYRGQGTLVTVSS
notes: Heavy chain-only antibody (no light chain), F18 family
fold over background MFI (cyno FOLR1 on CHO cells [3]): 996 fold over background | Kd (recombinant human FOLR1): 22.3 nM | EC50 [4]: 3.3 nM | fold over background MFI [5]: 1580 fold over background | binding result (mouse FOLR1 on CHO cells [11]): no binding (tested: 100 nM (log[nM] 2)) | EC50 [7]: 0.9 nM | EC50 (cyno FOLR1 on CHO cells [8]): 1.9 nM | EC50 [9]: 3.7 nM

B6: anti-FOLR1 heavy chain antibody (HCAb, UniAb) clone ID 352391 (antibody, V domains shown)
VH: EVQLVESGGGLVQPGGSLRLSCAASGFSFSSYSMKWVRQAPGKGLEWVSYISSSSDTIEYADSVKGRFTISRDNAKNSLYLQMNSLRDEDTAVYYCASVGLDFDYRGQGTLVTVSS
notes: as for B5
fold over background MFI (cyno FOLR1 on CHO cells [3]): 198 fold over background | Kd (recombinant human FOLR1): 34.8 nM | EC50 [4]: 5.5 nM | binding result (CHO_huFOLR2): no binding (tested: 100 nM) | fold over background MFI [5]: 944 fold over background | EC50 [7]: 2.8 nM | EC50 (cyno FOLR1 on CHO cells [8]): 2.7 nM | EC50 [9]: 2.8 nM | fold over background MFI [12]: 646 fold over background

B7: anti-FOLR1 heavy chain antibody (HCAb, UniAb) clone ID 352372 (antibody, V domains shown)
VH: B6 VH with D102E
notes: as for B5
fold over background MFI (cyno FOLR1 on CHO cells [3]): 123 fold over background | Kd (recombinant human FOLR1): 52.7 nM | EC50 [4]: 4.6 nM | binding result (CHO_huFOLR2): no binding (tested: 100 nM) | fold over background MFI [5]: 1130 fold over background | EC50 [7]: 4.9 nM | EC50 (cyno FOLR1 on CHO cells [8]): 3.4 nM | EC50 [9]: 3.6 nM | fold over background MFI [12]: 506 fold over background

B8: anti-FOLR1 heavy chain antibody (HCAb, UniAb) clone ID 352491 (antibody, V domains shown)
VH: B6 VH with D62G
notes: as for B5
fold over background MFI (cyno FOLR1 on CHO cells [3]): 159 fold over background | Kd (recombinant human FOLR1): 37.4 nM | EC50 [4]: 4.3 nM | binding result (CHO_huFOLR2): no binding (tested: 100 nM) | fold over background MFI [5]: 1480 fold over background | EC50 [7]: 3.3 nM | EC50 (cyno FOLR1 on CHO cells [8]): 2.1 nM | EC50 [9]: 5 nM | fold over background MFI [12]: 1640 fold over background

B9: anti-FOLR1 heavy chain antibody (HCAb, UniAb) clone ID 352496 (antibody, V domains shown)
VH: B6 VH with Q13K
notes: as for B5
fold over background MFI (cyno FOLR1 on CHO cells [3]): 157 fold over background | Kd (recombinant human FOLR1): 41.8 nM | EC50 [4]: 3.5 nM | binding result (CHO_huFOLR2): no binding (tested: 100 nM) | fold over background MFI [5]: 1410 fold over background | EC50 [7]: 1.1 nM | EC50 (cyno FOLR1 on CHO cells [8]): 4.3 nM | EC50 [9]: 3.8 nM | fold over background MFI [12]: 1740 fold over background

B10: anti-FOLR1 heavy chain antibody (HCAb, UniAb) clone ID 352564 (antibody, V domains shown)
VH: B6 VH with S52T, D56S, D102E
notes: as for B5
fold over background MFI (cyno FOLR1 on CHO cells [3]): 84.5 fold over background | Kd (recombinant human FOLR1): 81.1 nM | EC50 [4]: 5.4 nM | binding result (CHO_huFOLR2): no binding (tested: 100 nM) | fold over background MFI [5]: 816 fold over background | EC50 [7]: 32.6 nM | EC50 (cyno FOLR1 on CHO cells [8]): 5.7 nM | EC50 [9]: 3.7 nM | fold over background MFI [12]: 1790 fold over background

B11: anti-FOLR1 heavy chain antibody (HCAb, UniAb) clone ID 352672 (antibody, V domains shown)
VH: B6 VH with S53R, S98T
notes: as for B5
fold over background MFI (cyno FOLR1 on CHO cells [3]): 623 fold over background | Kd (recombinant human FOLR1): 36 nM | EC50 [4]: 5.9 nM | binding result (CHO_huFOLR2): no binding (tested: 100 nM) | fold over background MFI [5]: 1070 fold over background | EC50 [7]: 6.3 nM | EC50 (cyno FOLR1 on CHO cells [8]): 2.9 nM | EC50 [9]: 8.8 nM | fold over background MFI [12]: 2300 fold over background

B12: anti-FOLR1 heavy chain antibody (HCAb, UniAb) clone ID 358598 (antibody, V domains shown)
VH: B6 VH with K35N, S52T
notes: as for B5
fold over background MFI (cyno FOLR1 on CHO cells [3]): 1010 fold over background | Kd (recombinant human FOLR1): 22.7 nM | EC50 [4]: 1.9 nM | fold over background MFI [5]: 1890 fold over background | binding result (mouse FOLR1 on CHO cells [11]): no binding (tested: 100 nM (log[nM] 2)) | EC50 [7]: 0.6 nM | binding result [10]: no binding | EC50 (cyno FOLR1 on CHO cells [8]): 2.4 nM | EC50 [9]: 2.6 nM

B13: anti-FOLR1 heavy chain antibody (HCAb, UniAb) clone ID 358614 (antibody, V domains shown)
VH: B6 VH with S53R
notes: as for B5
fold over background MFI (cyno FOLR1 on CHO cells [3]): 735 fold over background | Kd (recombinant human FOLR1): 26.8 nM | EC50 [4]: 1.9 nM | fold over background MFI [5]: 886 fold over background | binding result (mouse FOLR1 on CHO cells [11]): no binding (tested: 100 nM (log[nM] 2)) | EC50 [7]: 0.7 nM | binding result [10]: no binding | EC50 (cyno FOLR1 on CHO cells [8]): 2.7 nM | EC50 [9]: 2.1 nM
